Changes are numbered by the printed parent chain. Values belong to the binder of their own block, whether it stands above or below them.
Tests used:
[1] = molecular target: T1, Human CD27 ECD truncated (ECD 1-121, cleavage site, His6) (human); test: ProteOn SPR, culture supernatants
T1 construct: also called human CD27 ECD with His Tag; CD27-His
T1 chain: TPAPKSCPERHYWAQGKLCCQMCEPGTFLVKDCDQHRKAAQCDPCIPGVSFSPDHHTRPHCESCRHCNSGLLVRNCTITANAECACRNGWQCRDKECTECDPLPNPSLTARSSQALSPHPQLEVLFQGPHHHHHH

[2] = molecular target: T1, Human CD27 ECD truncated (ECD 1-121, …); test: ProteOn SPR, purified mAb, CD27-His
[3] = molecular target: T2, Human CD27 ECD (ECD 1-173, His6) (human, UniProt P26842 21-193, biotinylated on amine residues (NHS-ester) where used biotinylated); test: single point Fab ELISA
T2 construct: also called biotinylated human CD27 ECD

[4] = molecular target: T2, Human CD27 ECD (ECD 1-173, His6); test: Fab ELISA; Fab captured by anti-Fd, biotinylated CD27 ECD at 0.2 nM

- Kd [1]: 2.23 nM
B1: M159 (antibody, human IgG4, V domains shown)
VH: QVQLVQSGAEVKKPGASVKVSCKASGYAFSSSWMNWVRQAPGQGLEWMGRIYPGDGDTNYNGKFKGRVTMTRDTSTSTVYMELSSLRSEDTAVYYCARSDYYGDYGFAYWGQGTLVTVSS
VL: DIQMTQSPSSLSASVGDRVTITCKASQSVDYAGDSYMNWYQQKPGKAPKLLIYAASNLESGVPSRFSGSGSGTDFTLTISSLQPEDFATYYCQQSNEDPYTFGQGTKVEIK
notes: also called H25,L220; parental mAb

- Kd [2]: 0.065 nM
- koff [2]: 0.000113 s⁻¹
- kon [2]: 1.73e+06 M⁻¹ s⁻¹
B2: M670 (antibody, V domains shown)
VH: EVQLVQSGAEVKKPGESLKISCKGSGYAFSSSWMNWVRQMPGKGLEWMGRIYSGDADTNYAQKFKGQVTISADKSISTAYLQWSSLKASDTAMYYCARSDYYGDYGFAYWGQGTLVTVSS
VL: B1 VL with D34E, Y36F
notes: isotype not restated (path 2); also called H257,L266

- Kd [1]: 1.54 nM
B3: M152 (antibody, human IgG4, V domains shown)
VH: B1 VH
VL: B1 VL with A32W, G33S, Y36F
notes: also called H25,L223

- Kd [1]: 1.07 nM
B4: M151 (antibody, human IgG4, V domains shown)
VH: B1 VH
VL: B1 VL with T20A, A32Y, G33N, D34S, Y36F
notes: also called H25,L224

- Kd [1]: 0.18 nM
B5: M165 (antibody, human IgG4, V domains shown)
VH: B1 VH with P53S
VL: B1 VL with A32F, G33R, D34T, Y36F
notes: also called H196,L221

- Kd [1]: 0.43 nM
B6: M162 (antibody, human IgG4, V domains shown)
VH: B1 VH with P53S
VL: B1 VL with T20A, A32Y, G33N, D34S, Y36F
notes: also called H196,L224

- Kd [1]: 1.41 nM
B7: M153 (antibody, human IgG4, V domains shown)
VH: B1 VH
VL: B1 VL with A32V, D34T, Y36F
notes: also called H25,L222

- Kd [1]: 1.34 nM
B8: M161 (antibody, human IgG4, V domains shown)
VH: B1 VH with P53S
VL: B1 VL with A32F, Y36L
notes: also called H196,L218

- Kd [2]: 0.058 nM
- koff [2]: 0.000145 s⁻¹
- kon [2]: 2.49e+06 M⁻¹ s⁻¹
B9: M669 (antibody, V domains shown)
VH: B1 VH with P53S, G56A, G62Q
VL: B1 VL with D34E, Y36F
notes: isotype not restated (path 2); also called H256,L266

- Kd [1]: 1.56 nM
B10: M154 (antibody, human IgG4, V domains shown)
VH: B1 VH
VL: B1 VL with A32F, G33R, D34T, Y36F
notes: also called H25,L221

- Kd [2]: 0.1 nM
- koff [2]: 0.000189 s⁻¹
- kon [2]: 1.89e+06 M⁻¹ s⁻¹
B11: M673 (antibody, V domains shown)
VH: B1 VH with P53S, G56A, G62Q
VL: B1 VL with G33H, D34E, Y36F
notes: isotype not restated (path 2); also called H256,L217

- Kd [1]: 4.04 nM
B12: M150 (antibody, human IgG4, V domains shown)
VH: B1 VH
VL: B1 VL with A32F, Y36L
notes: also called H25,L218

- Kd [1]: 0.3 nM
B13: M163 (antibody, human IgG4, V domains shown)
VH: B1 VH with P53S
VL: B1 VL with A32W, G33S, Y36F
notes: also called H196,L223

- Kd [2]: 0.144 nM
- koff [2]: 0.000264 s⁻¹
- kon [2]: 1.83e+06 M⁻¹ s⁻¹
B14: M672 (antibody, V domains shown)
VH: B1 VH with P53S, G56A, N61A, G62Q
VL: B1 VL with G33H, D34E, Y36F
notes: isotype not restated (path 2); also called H255,L217

- Kd [1]: 0.27 nM
B15: M164 (antibody, human IgG4, V domains shown)
VH: B1 VH with P53S
VL: B1 VL with A32V, D34T, Y36F
notes: also called H196,L222

- binding result [3]: binds
B16: F18 (Fab, V domains shown)
VH: EVQLLESGGGLVQPGGSLRLSCAASGFTFSSYTMSWVRQAPGKGLEWVSAIDHGGGRTYYPDSVKGRFTISRDNSKNTLYLQMNSLRAEDTAVYYCARHRGNPFDYWGQGTLVTVSS
VL: DIQMTQSPSSLSASVGDRVTITCRASKSVSTSGYSFMHWYQQKPGKAPKLLIYLASNLESGVPSRFSGSGSGTDFTLTISSLQPEDFATYYCQHSRELPWTFGQGTKVEIK
notes: also called H40/L40

- binding result [3]: binds
B17: F243 (Fab, V domains shown)
VH: B16 VH with A50Y, D52S, H53S, R57N
VL: B16 VL with L54V, A55G, N57R, L58M, E59A, S60F
notes: also called H39/L124

- binding result [3]: binds
B18: F279 (Fab, V domains shown)
VH: B16 VH with A50Y, D52S, H53S, R57N
VL: B16 VL with T31Y, S32V, G33R, Y34W
notes: also called H39/L160

- binding result [3]: binds
B19: F57 (Fab, V domains shown)
VH: B16 VH with R57Q, Y59L
VL: B16 VL
notes: also called H79/L40

- binding result [3]: binds
B20: F19 (Fab, V domains shown)
VH: B16 VH with Y59W
VL: B16 VL
notes: also called H41/L40

- binding result [3]: binds
B21: F295 (Fab, V domains shown)
VH: B16 VH with A50Y, D52S, H53S, R57N
VL: B16 VL with L54V, S56D, N57R, L58V, S60V
notes: also called H39/L176

- binding result [3]: binds
B22: F292 (Fab, V domains shown)
VH: B16 VH with A50Y, D52S, H53S, R57N
VL: B16 VL with T31H, S32V, G33R, Y34W
notes: also called H39/L173

- binding result [3]: binds
B23: F256 (Fab, V domains shown)
VH: B16 VH with A50Y, D52S, H53S, R57N
VL: B16 VL with L54V, A55G, N57R, E59D, S60Y
notes: also called H39/L137

- binding result [3]: binds
B24: F291 (Fab, V domains shown)
VH: B16 VH with A50Y, D52S, H53S, R57N
VL: B16 VL with T31H, S32I, G33R, Y34W
notes: also called H39/L172

- percent binding of the parent [4]: ≥ 100%
B25: M69-derived Fab with VH H239 (Fab, V domains shown)
VH: B2 VH with S53A, A56G, A61S, Q62P, K63S, K65Q
VL: DIVMTQSPDSLAVSLGERATINCKASQSVDYAGDSYMNWYQQKPGQPPKLLIYAASNLESGVPDRFSGSGSGTDFTLTISSLQAEDVAVYYCQQSNEDPYTFGQGTKLEIK
notes: clone of library C27H28L2; pairing with parent L35 inferred

- percent binding of the parent [4]: ≥ 100%
B26: M69-derived Fab with VL L256 (Fab, V domains shown)
VH: B2 VH with S53P, A56G, A61S, Q62P, K63S, K65Q
VL: B25 VL with Y36W, A54V
notes: clone of library C27L35L2; pairing with parent H28 inferred

- percent binding of the parent [4]: ≥ 100%
B27: M69-derived Fab with VH H240 (Fab, V domains shown)
VH: B2 VH with S53A, G54R, A56G, A61S, Q62P, K63S, K65Q
VL: B25 VL
notes: as for B25

- percent binding of the parent [4]: ≥ 100%
B28: M69-derived Fab with VH H236 (Fab, V domains shown)
VH: B2 VH with S53P, A56G, A61S, Q62P, K63S, K65Q, S99A, A108G
VL: B25 VL
notes: clone of library C27H28L3; pairing with the parent L35 light chain is inferred from the library design

- percent binding of the parent [4]: ≥ 100%
B29: M69-derived Fab with VL L260 (Fab, V domains shown)
VH: B2 VH with S53P, A56G, A61S, Q62P, K63S, K65Q
VL: B25 VL with Y31W, D34H, Y36W, A54T
notes: as for B26

- percent binding of the parent [4]: ≥ 100%
B30: M69-derived Fab with VH H242 (Fab, V domains shown)
VH: B2 VH with S53A, G54N, A56G, A61S, Q62P, K63S, K65Q
VL: B25 VL
notes: as for B25

- percent binding of the parent [4]: ≥ 100%
B31: M69-derived Fab with VL L261 (Fab, V domains shown)
VH: B2 VH with S53P, A56G, A61S, Q62P, K63S, K65Q
VL: B25 VL with D34S, Y36F, A54E
notes: as for B26

- percent binding of the parent [4]: ≥ 100%
B32: M69-derived Fab with VH H241 (Fab, V domains shown)
VH: B2 VH with S53G, G54R, A56G, A61S, Q62P, K63S, K65Q
VL: B25 VL
notes: as for B25

- percent binding of the parent [4]: ≥ 100%
B33: M69-derived Fab with VH H237 (Fab, V domains shown)
VH: B2 VH with Y52F, S53V, G54R, A56G, A61S, Q62P, K63S, K65Q
VL: B25 VL
notes: as for B25

- percent binding of the parent [4]: ≥ 100%
B34: M69-derived Fab with VH H243 (Fab, V domains shown)
VH: B2 VH with S53G, A56G, A61S, Q62P, K63S, K65Q
VL: B25 VL
notes: as for B25

- percent binding of the parent [4]: ≥ 100%
B35: M69-derived Fab with VH H238 (Fab, V domains shown)
VH: B2 VH with S53V, A56G, A61S, Q62P, K63S, K65Q
VL: B25 VL
notes: as for B25

- percent binding of the parent [4]: ≥ 100%
B36: M69-derived Fab with VL L257 (Fab, V domains shown)
VH: B2 VH with S53P, A56G, A61S, Q62P, K63S, K65Q
VL: B25 VL with Y36W, A54T, Q83L
notes: as for B26

- percent binding of the parent [4]: ≥ 100%
B37: M69-derived Fab with VH H244 (Fab, V domains shown)
VH: B2 VH with A56G, A61S, Q62P, K63S, K65Q
VL: B25 VL
notes: as for B25

- percent binding of the parent [4]: ≥ 100%
B38: M69-derived Fab with VL L255 (Fab, V domains shown)
VH: B2 VH with S53P, A56G, A61S, Q62P, K63S, K65Q
VL: B25 VL with Y36F
notes: clone recovered from the CDR-L1 libraries of L35; pairing with the parent H28 heavy chain inferred

- percent binding of the parent [4]: ≥ 100%
B39: M69-derived Fab with VH H245 (Fab, V domains shown)
VH: B2 VH with G8V, G54R, A56G, A61S, Q62P, K63S, K65Q
VL: B25 VL
notes: as for B25

Source: patent US20130243795A1 (Janssen / Centocor, published 2013)
